Assay results published in patent US20190338002A1 (Pieris, published 2019).

Tests used:
[1] = target: T1, human alpha CGRP (SEQ ID NO: 80) (human, not fully specified); assay: competition ELISA in solution; free mutein detected on plate-bound biotinylated CGRP
T1 construct: also called human αCGRP; hαCGRP
T1 peptide: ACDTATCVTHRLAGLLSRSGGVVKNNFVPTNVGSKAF
Experimental: (§1) Binding of lipocalin muteins to alpha and beta CGRP from human and rat in solution was tested in vitro using a competition ELISA assay format (FIG. 1). In this experiment, a constant concentration of non-biotinylated CGRP (0.5 μM) was incubated for 1 h with variable concentrations of lipocalin muteins SEQ ID NO: 2, SEQ ID NO: 3, SEQ ID NO: 4; SEQ ID NO: 5, and SEQ ID NO: 6. After this pre-incubation in solution, an aliquot of the lipocalin mutein/CGRP mixture was transferred to an ELISA plate coated with Neutravidin-captured human alpha CGRP-bio to measure the concentration of lipocalin muteins that was not blocked by non-biotinylated human alpha CGRP (SEQ ID NO: 80) and therefore could still be bound by the immobilized human alpha CGRP-bio (FIG. 1). This procedure was performed on another relevant CGRP species (human beta CGRP (SEQ ID NO: 81), rat alpha CGRP (SEQ ID NO: 82), rat beta CGRP (SEQ ID NO: 83)). All incubation steps were performed with shaking at 300 rpm, and the plate was washed after each incubation step with 80 μL PBS-T buffer (PBS, 0.05% Tween 20) for five times using a Biotek ELx405 select CW washer. In the first step, a 384-well ELISA plate was coated with 20 μL of Neutravidin at a concentration of 5 μg/mL in PBS over night at 4° C. After washing, the plate was blocked with 60 μL PBS-T/BSA (2% BSA in PBS containing 0.05% Tween 20) for 1 h at room temperature.
(§2) To allow for detection and quantification of plate-bound lipocalin muteins, the residual supernatants were discarded and 20 μL HRP-labeled anti-hNGAL antibody was added at a predetermined optimal concentration in PBS-T/BSA and incubated for 1 h at RT. The anti-hNGAL antibody had been obtained by immunization of rabbits with a mixture of muteins, and was subsequently coupled to HRP using a kit (EZ-link Plus Activated Peroxidase, Thermo Scientific) according to the manufacturer's instructions, to obtain the antibody-HRP conjugate. After washing, 20 μl fluorogenic HRP substrate (QuantaBlu, Thermo) was added to each well, and the reaction was allowed to proceed for 15 to 60 minutes. The fluorescence intensity of every well on the plate was read using a fluorescence microplate reader (Tecan or Molecular Devices). To evaluate the data, free mutein concentration, c(mutein)free, was calculated based on the standard curve results, and plotted versus ligand concentration, c(Ligand).

[2] = target: T2, human beta CGRP (SEQ ID NO: 81) (human, not fully specified); assay: as above
T2 construct: also called human βCGRP; hβCGRP
T2 peptide: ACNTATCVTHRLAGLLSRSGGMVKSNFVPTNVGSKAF
Experimental: as §1, §2

[3] = target: T3, rat beta CGRP (SEQ ID NO: 83) (rat, not fully specified); assay: as above
T3 construct: also called rat βCGRP; rat β-CGRP
T3 peptide: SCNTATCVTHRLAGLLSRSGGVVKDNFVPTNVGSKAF
Experimental: as §1, §2

[4] = target: T4, rat alpha CGRP (SEQ ID NO: 82) (rat); assay: as above
T4 construct: also called rat αCGRP; rat α-CGRP
T4 peptide: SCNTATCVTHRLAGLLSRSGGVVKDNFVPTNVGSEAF
Experimental: as §1, §2

[5] = target: T1, human alpha CGRP (SEQ ID NO: 80); assay: SPR, 37 C, mutein captured, CGRP analyte
In short: (§3)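 Biotinylated lipocalin muteins were captured on streptavidin-oligo CAP chip, and CGRP was injected at 30, 3 and 0.3 nM or at a single 25 nM at 37 °C (180 s association, 5400 s dissociation) in HBS-EP+. Double-referenced sensorgrams were globally fit to a 1:1 model for ka and kd.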

[6] = target: T2, human beta CGRP (SEQ ID NO: 81); assay: SPR, 37 C, mutein captured, CGRP analyte
In short: as §3

[7] = target: T4, rat alpha CGRP (SEQ ID NO: 82); assay: SPR, 37 C, mutein captured, CGRP analyte
In short: as §3

[8] = target: T3, rat beta CGRP (SEQ ID NO: 83); assay: SPR, 37 C, mutein captured, CGRP analyte
In short: as §3

[9] = target: T2, human beta CGRP (SEQ ID NO: 81); assay: SPR Biacore 37 °C, protein captured as ligand, hb CGRP (1-37) injected, 1:1 fit of a flat sensorgram; run 130208_NAN-DS-047 [contd]
Experimental: (§4) The Biotin CAPture Kit (GE Healthcare) was used to immobilize biotinylated lipocalin muteins to a chip surface. Muteins were biotinylated using standard NHS chemistry. Undiluted Biotin CAPture Reagent (streptavidin conjugated with ss-DNA oligo) was captured on a Sensor Chip CAP with the pre-immobilized complementary ss-DNA oligo. Thereafter, biotinylated muteins at 1 μg/mL were applied for 300 s at a flow rate of 5 μL/min.
(§5) CGRP species were applied in three concentrations of 30 nM, 3 nM and 0.3 nM at a flow rate of 30 μL/min or in a single concentration of 25 nM per cycle as shown in FIG. 2. The dilutions were injected with association times of 180 s and dissociation times of 5400 sec to obtain ka and kd information. Regeneration of the chip surface was achieved by injecting 6 M Guanidinium-HCl+0.25 M NaOH (120 s) with a flow rate of 10 μL/min. […]
(§6) The data were double-referenced by subtraction of the corresponding signals measured for the control channel (loaded with Biotin CAPture reagent only) and by subtraction of buffer injections from the binding responses. Association rate constant ka and dissociation rate constant kd for the binding reaction were determined using Biacore T200 Evaluation Software V2.0 for data processing and kinetic fitting. […]

[10] = target: T3, rat beta CGRP (SEQ ID NO: 83); assay: SPR Biacore 37 °C, protein captured as ligand, rb CGRP (1-37) injected, 1:1 fit of a flat sensorgram; run 130301_NAN-DS-049
Experimental: as §4, §5, §6

[11] = target: T2, human beta CGRP (SEQ ID NO: 81); assay: SPR Biacore 37 °C, protein captured as ligand, hb CGRP (1-37) injected, 1:1 fit of a flat sensorgram; run 130301_NAN-DS-049
Experimental: as §4, §5, §6

[12] = target: T4, rat alpha CGRP (SEQ ID NO: 82); assay: SPR Biacore 37 °C, protein captured as ligand, ra CGRP (1-37) injected, 1:1 fit of a flat sensorgram; run 130301_NAN-DS-049
Experimental: as §4, §5, §6

[13] = target: T1, human alpha CGRP (SEQ ID NO: 80); assay: SPR Biacore 37 °C, protein captured as ligand, ha CGRP (1-37) injected, 1:1 fit of a flat sensorgram; run 130208_NAN-DS-047 [contd]
Experimental: as §4, §5, §6

[14] = target: T3, rat beta CGRP (SEQ ID NO: 83); assay: SPR Biacore 37 °C, protein captured as ligand, rb CGRP (1-37) injected, 1:1 fit of a flat sensorgram; run 130208_NAN-DS-047 [contd]
Experimental: as §4, §5, §6

[15] = target: T4, rat alpha CGRP (SEQ ID NO: 82); assay: SPR Biacore 37 °C, protein captured as ligand, ra CGRP (1-37) injected, 1:1 fit of a flat sensorgram; run 130208_NAN-DS-047 [contd]
Experimental: as §4, §5, §6

[16] = target: T1, human alpha CGRP (SEQ ID NO: 80); assay: SPR Biacore 37 °C, protein captured as ligand, ha CGRP (1-37) injected, 1:1 fit of a flat sensorgram; run 130301_NAN-DS-049
Experimental: as §4, §5, §6

B1: lipocalin mutein SEQ ID NO: 3 (designed binder)
chain: QDSTSDLIPAPPLSKVPLQQNFQDNQFHGKWYVVGFAGNMWLREDKDPFKMGATIYELKEDKSYNVTWVWFEAKKCDYGINTFVPGSQPGEFTLGGIKSPPGMTSHLVRVVSTNYNQHAMVFFKEVFQNREWFWITLYGRTKELTSELKENFIRFSKSLGLPENHIVFPVPIDQCIDGSAWSHPQFEK
IC50 [1]: 7.5 nM | IC50 [2]: 14 nM | IC50 [3]: 12 nM

B2: lipocalin mutein SEQ ID NO: 5 (designed binder)
chain: QDSTSDLIPAPPLSKVPLQQNFQDNQFHGKWYVVGRAGNAELREDKDPEKMEATIYELKEDKSYNVTDVGFWQKKCIYVIHTFVPGSQPGEFTLGNIKSYPGTTSALVRVVSTNYNQHAMVFFKVVRQNREWFEITLYGRTKELTSELKENFIRFSKSLGLPENHIVFPVPIDQCIDGSAWSHPQFEK
IC50 [1]: 36 nM | IC50 [2]: 28 nM | IC50 [4]: 21 nM | IC50 [3]: 27 nM

B3: lipocalin mutein SEQ ID NO: 4 (designed binder)
chain: QDSTSDLIPAPPLSKVPLQQNFQDNQFHGKWYVVGWAGNTLLREDKDPTKMQATIYELKEDKSYNVTWVYFSEKKCNYHIETFVPGSQPGEFTLGTIKSYPGETSILVRVVSTNYNQHAMVFFKGVSQNREIFEITLYGRTKELTSELKENFIRFSKSLGLPENHIVFPVPIDQCIDGSAWSHPQFEK
notes: biotinylated by NHS chemistry for capture in SPR
Kd [5]: 1.82 nM | koff [5]: 0.00302 s⁻¹ | kon [5]: 1.66e+06 M⁻¹ s⁻¹ | Kd [6]: 0.753 nM | koff [6]: 0.00395 s⁻¹ | kon [6]: 5.24e+06 M⁻¹ s⁻¹ | Kd [7]: 5 nM | koff [7]: 0.00621 s⁻¹ | kon [7]: 1.24e+06 M⁻¹ s⁻¹ | Kd [8]: 2.19 nM | koff [8]: 0.00365 s⁻¹ | kon [8]: 1.66e+06 M⁻¹ s⁻¹ | IC50 [1]: 2.1 nM | IC50 [2]: 1.8 nM | IC50 [4]: 2.6 nM | IC50 [3]: 3 nM

B4: hNGAL wildtype (SEQ ID NO:1) (other)
chain: QDSTSDLIPAPPLSKVPLQQNFQDNQFHGKWYVVGLAGNAILREDKDPQKMYATIYELKEDKSYNVTSVLFRKKKCDYWIRTFVPGSQPGEFTLGNIKSYPGLTSYLVRVVSTNYNQHAMVFFKKVSQNREYFKITLYGRTKELTSELKENFIRFSKSLGLPENHIVFPVPIDQCIDG
notes: also called human lipocalin 2; human Lcn 2
koff [9]: 0.000159 s⁻¹ | kon [9]: 347000 M⁻¹ s⁻¹ | koff [10]: 0.00233 s⁻¹ | kon [10]: 1.62e+06 M⁻¹ s⁻¹ | koff [11]: 0.0185 s⁻¹ | koff [12]: 0.00105 s⁻¹ | kon [12]: 970000 M⁻¹ s⁻¹ | koff [13]: 0.00234 s⁻¹ | kon [13]: 342000 M⁻¹ s⁻¹ | koff [14]: 0.00414 s⁻¹ | kon [14]: 1.1e+06 M⁻¹ s⁻¹ | koff [15]: 0.00259 s⁻¹ | kon [15]: 1640 M⁻¹ s⁻¹ | koff [16]: 0.00221 s⁻¹ | kon [16]: 1200 M⁻¹ s⁻¹

B5: lipocalin mutein SEQ ID NO: 6 (designed binder)
chain: QDSTSDLIPAPPLSKVPLQQNFQDNQFHGKWYVVGIAGNWWLREDKDPLKMYATIYELKEDKSYNVTHVMFMTKKCDYTIRTFVPGSQPGEFTLGNIKSIPGMTSLLVRVVSTNYNQHAMVFFKFVWQNREWFHITLYGRTKELTSELKENFIRFSKSLGLPENHIVFPVPIDQCIDGSAWSHPQFEK
IC50 [1]: 3.1 nM | IC50 [4]: 0.77 nM | IC50 [3]: 1.6 nM

B6: lipocalin mutein SEQ ID NO: 2 (designed binder)
chain: QDSTSDLIPAPPLSKVPLQQNFQDNQFHGKWYVVGEAGNWGLREDKDPKKMAATIYELKEDKSYNVTDVQFIEKKCDYWIGTFVPGSQPGEFTLGAIKSEPGQTSNLVRVVSTNYNQHAMVFFKEVWQNRELFWITLYGRTKELTSELKENFIRFSKSLGLPENHIVFPVPIDQCIDGSAWSHPQFEK
IC50 [1]: 55 nM | IC50 [2]: 46 nM | IC50 [4]: 35 nM | IC50 [3]: 47 nM
